# Measurements published in patent US9051358B2, “Nonnatural collagen-like protein and use thereof” (ZHEJIANG UNIVERSITY, priority 2009, dated 2015).
# What was measured:
# [1] = Half-life of GLK/IFNα fusion proteins in SD rats; assay type: in vivo
# From the text: The structure characteristics and half-life in SD rats of the different GLK/IFNαs, which was constructed by fusion to different GLK, was compared in Table 5.
# 2′,5′-OAS = assay: Serum 2′,5′-OAS activity in rhesus monkeys after subcutaneous administration; assay type: in vivo
# Description: Rhesus monkeys.(n=15; including female and male; age range: 3-4; weight range: 4.2-4.8 kg), were purchased from Animal Center of Chinese Academy of Military Medicine and divided into five groups (3 in each group). Samples were diluted with PBS, wherein rGLK1164/IFNα was diluted respectively to 0.36, 1.0 and 3.6 pmol/kg, IFNα (positive control) was diluted to 0.36 pmol/kg, and rGLK1164 (blank control) was diluted to 0.36 pmol/kg. The diluted samples were administered to rhesus monkeys subcutaneously and the serum samples were collected at 0, 1, 2, 4, 8, 10, 14 […] after injection respectively. The activity of 2′, 5′-OAS in serum was measured with 2′,5′-OAS radioimmunoassay kit (Eiken Chemical Co., Tokyo, Japan).
# erythropoiesis = assay: Erythropoiesis in normal mice, hemoglobin (Hb) content; assay type: in vivo, BALB/c mice; conditions: weekly subcutaneous administration
# Description: rEPO/GLK1074 fusion protein was compared with standard rEPO (EPOGEN®, AMGEN Inc.) in erythropoiesis activity in mice. BALB/c mice (male, 6-8 weeks old, 18˜20 g/only) from the Shanghai Institute of animal testing center were used in the experiments. Grouping, injection, and tail vein blood samples collecting were performed according to the following table. Hemoglobin (Hb) content was determined by colorimetric.
substance,measurement,setting,value
"GLK302/IFNα: IFNα fused with GLK302, a repeated sequence of GGSGGS (SEQ ID NO: 16)",Half-life,[1],14.4 h
IFNα [reference compound],detectability in vivo,"2′,5′-OAS",could hardly be detected 6 days later
"rEPO: standard rEPO (EPOGEN®, AMGEN Inc.) [reference compound]","erythropoiesis activity, Hb levels",erythropoiesis,significantly lower than rEPO/GLK1074
